According to article PMC11909244, “Rice transcription factor bHLH25 confers resistance to multiple diseases by sensing H2O2”:

B1: bio-pmiR397b-G-box (dsDNA)
DNA 1: GTACTTTGTCACGTCCTGATCGAT
DNA 2: ATCGATCAGGACGTGACAAAGTAC
B2: com-pmiR397b-G-box (dsDNA)
DNA 1: GTACTTTGTCACGTCCTGATCGAT
DNA 2: ATCGATCAGGACGTGACAAAGTAC
B3: bio-pCPS2-N-box (dsDNA)
DNA 1: TTTCACAATCACGAGCTAGACTAA
DNA 2: TTAGTCTAGCTCGTGATTGTGAAA

Columns and labels:
[1] = target: T1, bHLH25 (Oryza sativa (Nipponbare), UniProt Q5SMX4 1-439); test: EMSA; 10 mM Tris-HCl pH 7.5, 50 mM KCl, 50 ng/mL poly(dI-dC), 1 mM DTT, ~0.5 ug GST protein in 10 uL, 0.5 uM pmiR397b-G-box or 0.1 uM pCPS2-N-box biotin probe; temperature not stated; details: protein: recombinant; tags: GST-SUMO (pGEX-6p-1-SUMO); chain copies: 2; label: 5' biotin
T1 sequence (Q5SMX4 entry or part of it): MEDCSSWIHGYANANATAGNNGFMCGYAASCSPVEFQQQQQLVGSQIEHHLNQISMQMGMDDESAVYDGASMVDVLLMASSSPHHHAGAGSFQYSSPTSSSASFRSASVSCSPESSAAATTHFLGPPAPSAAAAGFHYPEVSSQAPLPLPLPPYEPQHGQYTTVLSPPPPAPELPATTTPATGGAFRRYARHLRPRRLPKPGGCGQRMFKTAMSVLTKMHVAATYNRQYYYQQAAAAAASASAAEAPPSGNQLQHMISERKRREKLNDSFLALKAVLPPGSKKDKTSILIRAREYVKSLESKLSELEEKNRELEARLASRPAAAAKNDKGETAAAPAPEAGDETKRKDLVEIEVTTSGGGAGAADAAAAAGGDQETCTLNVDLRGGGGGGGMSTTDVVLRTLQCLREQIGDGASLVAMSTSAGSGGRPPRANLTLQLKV

[2] = target: bHLH25 M256V (Oryza sativa (Nipponbare), UniProt Q5SMX4 1-439, M256V); test: as above; details: protein: recombinant; tags: GST-SUMO; chain copies: 2; label: 5' biotin
bHLH25 M256V, sequence (Q5SMX4 entry or part of it M256V | M256V M256V): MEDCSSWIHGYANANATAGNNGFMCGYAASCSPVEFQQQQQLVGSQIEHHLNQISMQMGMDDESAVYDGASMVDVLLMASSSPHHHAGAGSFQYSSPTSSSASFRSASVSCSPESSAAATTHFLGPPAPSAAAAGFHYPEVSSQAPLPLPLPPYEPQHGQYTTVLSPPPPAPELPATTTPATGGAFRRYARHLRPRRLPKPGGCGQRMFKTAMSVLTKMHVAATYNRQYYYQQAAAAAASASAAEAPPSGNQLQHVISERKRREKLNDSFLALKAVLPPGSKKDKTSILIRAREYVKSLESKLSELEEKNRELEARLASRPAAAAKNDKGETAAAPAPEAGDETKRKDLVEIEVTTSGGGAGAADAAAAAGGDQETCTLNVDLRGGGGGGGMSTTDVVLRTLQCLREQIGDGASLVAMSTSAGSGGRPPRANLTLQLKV

[3] = target: T1, bHLH25; test: competition; unlabeled competitor of N1; 10 mM Tris-HCl pH 7.5, 50 mM KCl, 50 ng/mL poly(dI-dC), 1 mM DTT, ~0.5 ug GST protein in 10 uL, 0.5 uM pmiR397b-G-box or 0.1 uM pCPS2-N-box biotin probe; temperature not stated; details: protein: recombinant; tags: GST-SUMO (pGEX-6p-1-SUMO); chain copies: 2

Binder	binding result [1]	binding result [2]	binding result [3]
B1	binds	no binding	–
B2	–	–	binds
B3	binds	no binding	–
